Reference: paper PMC10673652, “PoWRKY71 is involved in Paeonia ostii resistance to drought stress by directly regulating light-harvesting chlorophyll a/b-binding 151 gene”
Residue numbers refer to the chain shown, from its start.

B1: PoCAB151 promoter W-box probe (dsDNA)
DNA 1: GTGTTTCCTGCATTCGGTCAGCAACCAAATGACC
DNA 2: GGTCATTTGGTTGCTGACCGAATGCAGGAAACAC
B2: PoCAB151 promoter W-box mutant probe (dsDNA)
DNA 1: B1 DNA 1 with G17A, T18A, C19A
DNA 2: B1 DNA 2 with G16T, A17T, C18T

Molecular target: PoWRKY71 (Paeonia ostii, UniProt A0AB38Z7I8 1-311)
Sequence (A0AB38Z7I8 entry or part of it): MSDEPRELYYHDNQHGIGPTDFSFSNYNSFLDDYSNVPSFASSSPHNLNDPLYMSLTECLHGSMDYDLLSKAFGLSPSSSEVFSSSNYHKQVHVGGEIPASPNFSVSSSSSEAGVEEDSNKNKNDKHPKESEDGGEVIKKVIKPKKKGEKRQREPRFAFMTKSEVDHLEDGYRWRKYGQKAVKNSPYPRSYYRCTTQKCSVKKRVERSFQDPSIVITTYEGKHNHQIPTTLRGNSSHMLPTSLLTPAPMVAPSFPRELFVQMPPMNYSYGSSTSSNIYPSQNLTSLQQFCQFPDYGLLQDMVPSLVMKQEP
Test: EMSA; not stated in the material (EMSA as in Luan et al., ref. 58)
Settings: protein: recombinant, tags: His, SUMO (pET-SUMO), blunt

Binder	binding result	binding result (label: biotin)
B1	binds	
B2		no binding
